In FireProtDB (doi:10.1002/pro.5560051112):
Where “and” joins values, the source holds several entries; their conditions need not be identical. Equal values may be shown once.

B1: Beta-glucanase wild type, P07980 (protein)
chain: MKRVLLILVTGLFMSLCGITSSVSAQTGGSFFEPFNSYNSGLWQKADGYSNGDMFNCTWRANNVSMTSLGEMRLALTSPSYNKFDCGENRSVQTYGYGLYEVRMKPAKNTGIVSSFFTYTGPTEGTPWDEIDIEFLGKDTTKVQFNYYTNGAGNHEKFADLGFDAANAYHTYAFDWQPNSIKWYVDGQLKHTATTQIPAAPGKIMMNLWNGTGVDDWLGSYNGVNPIYAHYDWMRYRKK
B2: Beta-glucanase wild type, P23904 (protein)
chain: MKKKSCFTLVTTFAFSLIFSVSALAGSVFWEPLSYFNRSTWEKADGYSNGGVFNCTWRANNVNFTNDGKLKLGLTSSAYNKFDCAEYRSTNIYGYGLYEVSMKPAKNTGIVSSFFTYTGPAHGTQWDEIDIEFLGKDTTKVQFNYYTNGVGGHEKVISLGFDASKGFHTYAFDWQPGYIKWYVDGVLKHTATANIPSTPGKIMMNLWNGTGVDDWLGSYNGANPLYAEYDWVKYTSN

Conditions: pH 6, Thermal, DSC, Sodium cacodylate 2 mM, reversible: yes(>80%), whole UniProt chain shown; for unfolding free energy: 25 °C
[1] = Paenibacillus macerans, CaCl2 1 mM

Row | Protein | Tm (Bacillus amyloliquefaciens, CaCl2 1 mM) | Tm (Bacillus amyloliquefaciens) | unfolding free energy [1] | unfolding free energy (Paenibacillus macerans) | Tm [1] | unfolding enthalpy (calorimetric) [1] | Tm (Paenibacillus macerans) | unfolding enthalpy (calorimetric) (Paenibacillus macerans)
1 | B1 | 58.9 °C | 48.7 °C | – | – | – | – | – | –
2 | B2 | – | – | 9 kcal/mol | 6.1 kcal/mol | 50.8 °C and 50.5 °C | 139 kcal/mol and 156 kcal/mol | 44.5 °C | 119 kcal/mol
